The target in assay [1] is human claudin 18 isoform 2 (claudin 18.2) (human). Put plainly: cell-based or functional assay.
Assay [2] has the same target. Put plainly: immunofluorescence imaging, CHO-CLDN18.2 cells (FIG. 3B).
For assay [3] the target is unchanged. The assay can be described thus: immunofluorescence imaging on CHO-Claudin18.2 cells, serial dilution of antibody; table drawn under the curves (run with Hu-2, Hu-9, Hu-10).

PC1 (in-house positive control CLDN18.2-specific antibody zolbetuximab), sequence (VH): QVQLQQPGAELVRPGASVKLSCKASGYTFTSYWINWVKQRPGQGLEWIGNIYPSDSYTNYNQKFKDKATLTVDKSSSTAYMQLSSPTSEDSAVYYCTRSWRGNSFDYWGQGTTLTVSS
PC1 (in-house positive control CLDN18.2-specific antibody zolbetuximab), sequence (VL): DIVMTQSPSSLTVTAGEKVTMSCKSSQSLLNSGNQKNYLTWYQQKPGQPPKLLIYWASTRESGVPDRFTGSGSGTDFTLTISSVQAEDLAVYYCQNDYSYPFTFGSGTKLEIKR

Turning to “PC1 (in-house positive control CLDN18.2-specific antibody zolbetuximab)”, in assay [1], the ADCC EC50, similar assay with human effector cells (data not shown) is 0.66 nM. Moreover, the EC50 in assay [2] and in assay [3] was 3.2 nM each time.
